From US20230065226A1

Target: mouse chemokine receptors (mouse)
Experiment: cell-based or functional assay

B1: (LD78β(C11S)Fv^315)2 vaccibody (protein, part only; not given: IgG3 hinge, CH3, scFv carrier, not shown: another chain or arm of the molecule; a dimerising Fc or GST; large carriers; small tags and cut ends)
chain: APLAADTPTASCFSYTSRQIPQNFIADYFETSSQCSKPSVIFLTKRGRQVCADPSEEWVQKYVSDLELSA
modifications: not fully specified (C-terminus); ends and bridges not checked; also: covalent homodimer via IgG3 hinge disulfides, C-terminal carrier (IgG3 hinge, CH3, scFv315) not in chain
ability to stimulate T cells (proliferation of Id^315-specific Th2 cells with BALB/c splenocytes as APC): 100 fold
